The values that follow come from paper doi:10.1101/2022.10.17.512494.

The target of this assay is recombinant VE-cadherin-Fc (UniProt P55284). Put plainly: atomic force microscopy.

Regarding “recombinant VE-cadherin-Fc (from UniProt P55284 46-599) (Fc fusion)”, the binding activity (binding probability) worked out at 61%.
